Results: US20240325520A1
Like-named read-outs stand apart in the source and are kept apart here.

How the values were obtained:
[1] = molecular target: RBD protein (K417N, N501Y, E484K)
[2] = molecular target: RBD protein (L452R, E484Q)
[3] = molecular target: RBD protein (L452R, E484Q); remark: listed apart in the source

Substance: MM43 neutralizing monoclonal antibody (Beijing Sino Biological Ltd. Co., article number 40591-MM43)
- EC50 (read off the curve) [1]: 0.7 µg/mL

Substance: MM57 neutralizing monoclonal antibody (Beijing Sino Biological Ltd. Co., article number 40592-MM57)
- EC50 (read off the curve) [2]: 0.2 µg/mL

Substance: R001 neutralizing monoclonal antibody (Beijing Sino Biological Ltd. Co., article number 40592-R001)
- EC50 (read off the curve) [3]: 0.2 µg/mL
